According to patent US20120114595A1 (OTSUKA CHEMICAL, published 2012):

Assays:
[1] = molecular target: T1, AILIM ligand B7-H2/Fc Chimera (R&D Systems, Inc.), biotinylated (UniProt O75144 19-258, biotinylated using EZ-Link NHS-PEO Solid Phase Biotinylation Kit (sites not given)); experiment: ELISA, coated synthetic AILIM (lot a, 0.01671 nmol/ml) against coated ICOS/Fc as reference, biotinylated B7-H2/Fc
T1 construct: Bought reagent; also called B7RP-1; Fc part of the bought chimera not given
T1 sequence (looked up): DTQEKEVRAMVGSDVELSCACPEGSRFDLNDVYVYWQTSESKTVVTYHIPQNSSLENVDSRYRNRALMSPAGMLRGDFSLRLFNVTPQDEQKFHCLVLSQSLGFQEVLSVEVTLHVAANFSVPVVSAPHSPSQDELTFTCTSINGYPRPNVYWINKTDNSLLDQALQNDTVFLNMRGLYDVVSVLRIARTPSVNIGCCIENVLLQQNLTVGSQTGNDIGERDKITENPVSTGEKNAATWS
Protocol: (§1) Dilution series of each evaluation sample solution of synthetic AILIM were added to an ELISA plate, and each well was coated therewith by reaction at 37° C. for 2 hours. After the reaction, the sample solution was discarded, D-PBS (−) containing 0.4% bovine serum albumin and 0.05% Tween 20 (blocking solution) was added at a concentration of 150 μL/well, and each well was blocked by reaction at 37° C. for 1 hour. The plate thus blocked was washed 3 times with D-PBS (−) containing 0.1% bovine serum albumin and 0.05% Tween 20 (washing buffer). An AILIM ligand B7-H2/Fc Chimera (R&D Systems, Inc.) biotinylated using EZ-Link NHS-PEO Solid Phase Biotinylation Kit was added at a concentration of 200 ng/50 μL/well and reacted at 37° C. for 1.5 hours. Unreacted ligand molecules were removed by washing 3 times with the washing buffer.
(§2) Subsequently, streptavidin-labeled horseradish peroxidase (BD-Pharmingen) diluted 1000-fold with D-PBS (−) containing 0.1% bovine serum albumin was added at a concentration of 100 μL/well and reacted at 37° C. for 1 hour. After the reaction, the plate was washed with 3 times with the washing buffer to remove unreacted streptavidin-labeled horseradish peroxidase. […] The reaction was terminated by the addition of 1% SDS at a concentration of 100 μL/well, and the OD value at 405 nm was measured using a plate reader (VersaMax, Molecular Devices, LLC). […]

[2] = molecular target: T1, AILIM ligand B7-H2/Fc Chimera (R&D …); experiment: ELISA, coated synthetic AILIM (lot a, 0.06684 nmol/ml) against coated ICOS/Fc as reference, biotinylated B7-H2/Fc
Protocol: as §1, §2

[3] = molecular target: T1, AILIM ligand B7-H2/Fc Chimera (R&D …); experiment: ELISA, coated synthetic AILIM (lot a, 0.004178 nmol/ml) against coated ICOS/Fc as reference, biotinylated B7-H2/Fc
Protocol: as §1, §2

[4] = molecular target: T1, AILIM ligand B7-H2/Fc Chimera (R&D …); experiment: ELISA, coated synthetic AILIM against coated ICOS/Fc as reference, biotinylated B7-H2/Fc
Protocol: as §1, §2

B1: oligosaccharide chain-added extracellular domain of AILIM (synthetic AILIM), 120-amino acid extracellular domain of human AILIM with an asialo-nonasaccharide … (receptor)
chain: EINGSANYEMFIFHNGGVQILCKYPDIVQQFKMQLLKGGQILCDLTKTKGSGNTVSIKSLKFCHSQLSNNSVSFFLYNLDHSHANYYFCNLSIFDPPPFKVTLTGGYLHIYESQLCCQLK
modifications: asialo-nonasaccharide chain on Asn at position 69 (residue 89 by counting from the N-terminal Met of AILIM); no oligosaccharide chain at positions 3 and 90
notes: Made by chemical synthesis (Fmoc solid phase, KCL/NCL ligation), Acm groups removed, folded by dialysis in two dialysis tubes (lot a and lot b); Coated on the ELISA plate in the assays; also called synthetic AILIM lot. a; synthetic AILIM lot. b
B/A (ICOS/Fc concentration for the same absorbance over synthetic AILIM concentration) [1]: 6.05 fold | B/A (ICOS/Fc concentration for the same absorbance over synthetic AILIM concentration) [2]: 11.4 fold | B/A (ICOS/Fc concentration for the same absorbance over synthetic AILIM concentration) [3]: 8.88 fold | fold ICOS/Fc concentration required for equivalent ligand binding activity [4]: ~10 fold
